This is an account of results in patent US20210300993A1 (AVALON GLOBOCARE, published 2021).

In assay [1] the target is T1, IFNγ (UniProt P01579 24-166, limits assumed).
T1 sequence (looked up): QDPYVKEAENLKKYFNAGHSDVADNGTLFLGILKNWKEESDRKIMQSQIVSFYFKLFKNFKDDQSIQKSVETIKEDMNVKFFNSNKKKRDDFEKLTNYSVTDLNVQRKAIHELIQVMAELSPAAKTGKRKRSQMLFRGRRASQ
Briefly: MicroScale Thermophoresis, 5 nM NT647-labeled receptor fusion against a gradient of ligand, 25 C. Here is the method: (§1) The affinity of QTY modified cytokine receptor fused with Fc of IgG for their respective native ligands was measured using MicroScale Thermophoresis (MST). Changes in thermophoretic movement for labeled proteins upon ligand-binding were recorded and plotted as a function of ligand concentration.
(§2) MicroScale Thermophoresis (MST) is an optical method detecting changes in thermophoretic movement and TRIC of the protein-attached fluorophore upon ligand binding. Active labelled proteins contribute to the thermophoresis signal upon ligand binding. […] Herein ligand binding experiments were carried out with 5 nM NT647-labeled protein in 1× PBS, 10 mM DTT buffer with different concentration of arginine, against a gradient of respective ligands on a Monolith NT.115 pico instrument at 25° C. Synthesized receptors were labeled with Monolith NT™ 2nd generation protein labeling kit RED-NHS (NanoTemper Technologies) so as to obtain unique fluorescent signals. MST time traces were recorded and analyzed to obtain the highest possible signal-to-noise levels and amplitudes, >5 Fnorm units. The recorded fluorescence was plotted against the concentration of ligand, and curve fitting was performed using the Kd fit formula derived from the law of mass action. For clarity, binding graphs of each independent experiment were normalized to the fraction bound (0=unbound, 1=bound). MST experiments were performed in the Center for Macromolecular Interactions at Harvard Medical School.

Assay [2] has as its target T1, IFNγ. Briefly: MicroScale Thermophoresis (MST), fluorescently labelled receptor fusion titrated with IFNγ.
Excerpt: (§3) FIG. 3A-3D. MST ligand binding measurements. The receptors were labeled with fluorescent dye. The ligands were purchased commercially from and dissolved in di water. (FIG. 3A) IL4Rα^QTY-Fc with IL4; (FIG. 3B) IL10Rα^QTY-Fc with IL10; (FIG. 3C) IFNγR1^QTY-Fc with IFNγ; (FIG. 3D) […].
as §2, with “MST experiments were performed in the Center for Macromolecular Interactions at Harvard Medical School.” left out

Assay [3] addresses T2, IL29 (UniProt Q8IU54 20-200, limits assumed). The assay can be described thus: MicroScale Thermophoresis, 5 nM NT647-labeled receptor fusion against a gradient of ligand, 25 C. The protocol: as §1, §2
A general note: Microscale thermophoresis detects binding through changes in fluorescence in a small temperature gradient.

In assay [4] the target is T2, IL29. Briefly: MicroScale Thermophoresis (MST), fluorescently labelled receptor fusion titrated with IL29.
Excerpt: as §3
as §2, with “MST experiments were performed in the Center for Macromolecular Interactions at Harvard Medical School.” left out

The target in assay [5] is T3, IL10 (UniProt P22301 19-178). The assay can be described thus: MicroScale Thermophoresis (MST), fluorescently labelled receptor fusion titrated with IL10.
T3 sequence (P22301 19-178 limits assumed): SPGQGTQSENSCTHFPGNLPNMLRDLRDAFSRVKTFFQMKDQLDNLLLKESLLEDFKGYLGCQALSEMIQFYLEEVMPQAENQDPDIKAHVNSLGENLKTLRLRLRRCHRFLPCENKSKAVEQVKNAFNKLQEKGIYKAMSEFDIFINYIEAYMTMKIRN
Excerpt: as §3
as §2, with “MST experiments were performed in the Center for Macromolecular Interactions at Harvard Medical School.” left out

Assay [6] has as its target T3, IL10. Briefly: MicroScale Thermophoresis, 5 nM NT647-labeled receptor fusion against a gradient of ligand, 25 C. Here is the method:
as §1, §2

T2 sequence (Q8IU54 20-200 limits assumed): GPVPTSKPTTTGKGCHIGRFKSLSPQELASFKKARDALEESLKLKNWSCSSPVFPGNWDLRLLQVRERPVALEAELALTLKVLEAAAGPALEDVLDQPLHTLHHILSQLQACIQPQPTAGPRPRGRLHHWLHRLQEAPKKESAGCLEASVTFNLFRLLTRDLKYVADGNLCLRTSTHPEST

B1: IFNγR1^QTY-Fc (HUMAN Interferon gamma receptor 1-Fc fusion) (Fc fusion)
chain: EMGTADLGPSSVPTPTNVTIESYNMNPIVYWEYQIMPQVPVFTVEVKNYGVKNSEWIDACINISHHYCNISDHVGDPSNSLWVRVKARVGQKESAYAKSEEFAVCRDGKIGPPKLDIRKEEKQIMIDIFHPSVFVNGDEQEVDYDPETTCYIRVYNVYVRMNGSEIQYKILTQKEDDCDEIQCQLAIPVSSLNSQYCVSAEGVLHVWGVTTEKSKEVCITIFNSSIKGSQWTPTTAAQQQYQTQSQTYTCFYIKKTETSQVAPAHHHHHHHHHHGSKLVDPRGPTIKPCPPCKCPAPNLLGGPSVFIFPPKIKDVLMISLSPIVTCVVVDVSEDDPDVQISWFVNNVEVHTAQTQTHREDYNSTLRVVSALPIQHQDWMSGKEFKCKVNNKDLPAPIERTISKPKGSVRAPQVYVLPPPEEEMTKKQVTLTCMVTDFMPEDIYVEWTNNGKTELNYKNTEPVLDSDGSYFMYSKLRVEKKNWVERNSYSCSVVHEGLHNHHTTKSFSRTPGK
modifications: labeled with NT647 RED-NHS fluorescent dye for MST
Take B1: in assay [1], the dissociation constant Kd (usually the free concentration of one partner at which half of the binding sites on the other are occupied at equilibrium, for simple one-to-one binding) is 6.2 nM. The EC50 (read off the curve) (as a rule, the concentration giving half of the maximal effect) in assay [2] was about 9 nM.

B2: IFNλR1^QTY-Fc (HUMAN Interferon lambda receptor 1-Fc fusion) (Fc fusion)
chain: RPRLAPPQNVTLLSQNFSVYLTWLPGLGNPQDVTYFVAYQSSPTRRRWREVEECAGTKELLCSMMCLKKQDLYNKFKGRVRTVSPSSKSPWVESEYLDYLFEVEPAPPVLVLTQTEEILSANATYQLPPCMPPLDLKYEVAFWKEGAGNKTLFPVTPHGQPVQITLQPAASEHHCLSARTIYTFSVPKYSKFSKPTCFLLEVPEANWAYQTQPSQQTQQQTTAAGGTTWKTLMGNTETSQVAPAHHHHHHHHHHGSKLVDPRGPTIKPCPPCKCPAPNLLGGPSVFIFPPKIKDVLMISLSPIVTCVVVDVSEDDPDVQISWFVNNVEVHTAQTQTHREDYNSTLRVVSALPIQHQDWMSGKEFKCKVNNKDLPAPIERTISKPKGSVRAPQVYVLPPPEEEMTKKQVTLTCMVTDFMPEDIYVEWTNNGKTELNYKNTEPVLDSDGSYFMYSKLRVEKKNWVERNSYSCSVVHEGLHNHHTTKSFSRTPGK
modifications: labeled with NT647 RED-NHS fluorescent dye for MST
B2 registered a Kd in assay [3] of 11.5 nM. Also, the “EC50 (read off the curve)” value in assay [4] was about 10 nM.

B3: IL10Rα^QTY-Fc (HUMAN Interleukin-10 receptor subunit alpha-Fc fusion) (Fc fusion)
chain: HGTELPSPPSVWFEAEFFHHILHWTPIPNQSESTCYEVALLRYGIESWNSISNCSQTLSYDLTAVTLDLYHSNGYRARVRAVDGSRHSNWTVTNTRFSVDEVTLTVGSVNLEIHNGFILGKIQLPRPKMAPANDTYESIFSHFREYEIAIRKVPGNFTFTHKKVKHENFSLLTSGEVGEFCVQVKPSVASRSNKGMWSKEECISLTRQYFTVTNTTTYYAYTQQQSGAQAYCQAQQLYVRRRKKTETSQVAPAHHHHHHHHHHGSKLVDPRGPTIKPCPPCKCPAPNLLGGPSVFIFPPKIKDVLMISLSPIVTCVVVDVSEDDPDVQISWFVNNVEVHTAQTQTHREDYNSTLRVVSALPIQHQDWMSGKEFKCKVNNKDLPAPIERTISKPKGSVRAPQVYVLPPPEEEMTKKQVTLTCMVTDFMPEDIYVEWTNNGKTELNYKNTEPVLDSDGSYFMYSKLRVEKKNWVERNSYSCSVVHEGLHNHHTTKSFSRTPGK
modifications: labeled with NT647 RED-NHS fluorescent dye for MST
Turning to B3, in assay [5], the “EC50 (read off the curve)” value is about 4 nM. The molecule further returned a Kd in assay [6] of 1.6 nM.
